# Source: patent US20140056908
# T1: malaria vaccine candidate protein Pfs48 with PR-1a signal peptide, 6xHis tag and KDEL
# T1 chain: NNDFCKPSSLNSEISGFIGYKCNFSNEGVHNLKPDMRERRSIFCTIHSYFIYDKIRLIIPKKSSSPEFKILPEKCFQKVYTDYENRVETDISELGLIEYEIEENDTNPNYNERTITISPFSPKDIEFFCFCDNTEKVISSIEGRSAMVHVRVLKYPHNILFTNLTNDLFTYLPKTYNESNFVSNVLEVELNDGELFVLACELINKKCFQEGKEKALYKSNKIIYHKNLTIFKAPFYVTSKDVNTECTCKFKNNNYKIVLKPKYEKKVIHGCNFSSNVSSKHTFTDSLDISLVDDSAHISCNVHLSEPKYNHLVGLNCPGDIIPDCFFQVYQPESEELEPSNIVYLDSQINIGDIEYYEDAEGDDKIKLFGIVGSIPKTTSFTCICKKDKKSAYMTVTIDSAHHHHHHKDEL
# B1: endoglycosidase F from Elizabethkingia meningoseptica (PNGaseF) with PR-1a signal peptide, FLAG tag and KDEL (protein)
# chain: APADNTVNIKTFDKVKNAFGDGLSQSAEGTFTFPADVTTVKTIKMFIKNECPNKTCDEWDRYANVYVKNKTTGEWYEIGRFITPYWVGTEKLPRGLEIDVTDFKSLLSGNTELKIYTETCLAKGREYSVDFDIVYGTPDYKYSAVVPVIQYNKSSIDGVPYGKAHTLGLKKNIQLPTNTEKAYLRTTISGWGHAKPYDAGSRGCAEWCFRTHTIAINNANTFQHQLGALGCSANPINNQSPGNWAPDRAGWCPGMAVPTRIDVLNNSLTGSTFSYEYKFQSWTNNGTNGDAFYAISSFVIAKSNTPISAPVVTNDYKDDDDKDEL
# Biological target: T1, malaria vaccine candidate protein Pfs48 …
protein,measurement,value
B1,electrophoretic mobility of Pfs48 on Western blot (deglycosylation on co-expression in planta),"the electrophoretic mobility of the glycosylated Pfs48 (control, which was expressed w/o PNGaseF) was different (less mobility) compared to the non-glycosylated form of Pfs48 that was co-expressed with PNGaseF"
